The text below walks through data of patent US12203932B2, “Genetically encoded biosensors” (Howard Hughes Medical Institute, priority 2011, dated 2025).

Data set [1] is described as follows: Fluorescence response and titration of soluble EcYbeJ253-cpGFP sensors with glutamate. Conditions: soluble protein; read-out: Kd (affinity) for glutamate. It is filed as binding. As to the method:
Several thousand variants were screened in semi-high-throughput fashion, measuring fluorescence intensity of clarified cell lysate in the absence and presence of 10 mM glutamate.

A short description of data set [2]: Thermal stability by circular dichroism (CD) of MBPs and MBP-cpGFP sensors. It is filed as physicochemical. Conditions: CD signal vs temperature. As to the method: Thermal stability of PfMBP171-cpGFP.L2FE was measured using circular-dichroism (CD) and compared to the original EcMBP and PfMBP binding proteins, along with cpGFP. Following the changes by means of CD allowed determination of whether different transitions happened in alpha, beta, or both kinds of structures.
Given that cpGFP is a beta barrel, strong transitions in the beta signal alone were associated with changes in this kind of structure. In the same way, transitions in both kinds of signals were associated with the binding protein structure. […] Also, the addition of maltose to EcMBP stabilized the protein by about 10° C.

B1: wild-type YbeJ: E. coli glutamate-binding protein; SEQ ID NO:107 (protein, listed as Escherichia coli)
chain: MNAKIIASLAFTSMFSLSTLLNPAYAEEQEKALNFGIISTESQQNLKPQWTPFLQDMEKKLGVKVNAFFAPDYAGIIQGMRFNKVDIAWYGNLSAMEAVDRANGQVFAQTVAADGSPGYWSVLIVNKDSPINNLNDLLAKRKDLTFGNGDPNSTSGFLVPGYYVFAKNNISASDFKRTVNAGHETNALAVANKQVDVATNNTENLDKLKTSAPEKLKELKVIWKSPLIPGDPIVWRKNLSETTKDKIYDFFMNYGKTPEEKAVLERLGWAPFRASSDLQLVPIRQLALFKEMQSVKDNKGLNEQDKLAKTTAIQAQLDDLDRLNNALSAMSSVSKAVQ
For B1, the Kd in data set [1] was roughly 1000 nM.

B2: PfMBP: Pyrococcus furiosus maltotriose binding protein; SEQ ID NO:106 (protein, listed as Pyrococcus furiosus)
chain: MRRATYAFALLAILVLGVVASGCIGGGTTTPTQTSPATQPTTTQTPTQTETQAVECGSGKVVIWHAMQPNELEVFQSLAEEYMALCPEVEIVFEQKPNLEDALKAAIPTGQGPDLFIWAHDWIGKFAEAGLLEPIDEYVTEDLLNEFAPMAQDAMQYKGHYYALPFAAETVAIIYNKEMVSEPPKTFDEMKAIMEKYYDPANEKYGIAWPINAYFISAIAQAFGGYYFDDKTEQPGLDKPETIEGFKFFFTEIWPYMAPTGDYNTQQSIFLEGRAPMMVNGPWSINDVKKAGINFGVVPLPPIIKDGKEYWPRPYGGVKLIYFAAGIKNKDAAWKFAKWLTTSEESIKTLALELGYIPVLTKVLDDPEIKNDPVIYGFGQAVQHAYLMPKSPKMSAVWGGVDGAINEILQDPQNADIEGILKKYQQEILNNMQG
For B2, the “denaturation temperature / Tm of binding protein (component)” value in data set [2] is no less than 80 °C.
